Laboratory results from patent US20040253247A1 (Genentech, published 2004).
Bridges are numbered along the chain shown (N, C = ends). Where no end group is shown, it is not given here. code n = not defined here

How the values were obtained:
[1] = biological target: T1, mouse albumin (mouse, UniProt P07724 25-608); assay: phage ELISA, photograph of the plate
[2] = biological target: T2, ovalbumin (UniProt P01012 2-386); assay: phage ELISA, photograph of the plate
T2 sequence (looked up): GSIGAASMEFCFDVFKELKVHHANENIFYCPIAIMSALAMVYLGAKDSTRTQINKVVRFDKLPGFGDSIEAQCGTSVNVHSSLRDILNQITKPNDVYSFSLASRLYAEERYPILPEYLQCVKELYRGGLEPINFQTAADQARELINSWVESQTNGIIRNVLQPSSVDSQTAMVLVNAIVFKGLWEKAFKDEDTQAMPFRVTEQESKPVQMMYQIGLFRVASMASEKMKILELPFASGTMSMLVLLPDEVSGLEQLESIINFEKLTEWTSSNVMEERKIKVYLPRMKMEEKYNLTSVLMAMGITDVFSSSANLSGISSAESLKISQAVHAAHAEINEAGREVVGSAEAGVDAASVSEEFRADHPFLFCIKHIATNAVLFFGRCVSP

[3] = biological target: T3, rat albumin (rat, UniProt P02770 25-608); assay: phage ELISA, photograph of the plate
[4] = biological target: T4, rabbit albumin (rabbit, UniProt P49065 25-608); assay: phage ELISA, photograph of the plate
[5] = biological target: T5, IgG-Fc (UniProt P01857-1 108-330 = IgG part, limits assumed); assay: synthetic peptide; method of the Kd not named
T5 construct: domain: IgG-Fc; also called biotinylated-IgG-Fc; biotin-IgG-Fc

[6] = biological target: rhesus albumin (rhesus, UniProt Q28522 17-600); assay: phage ELISA, photograph of the plate
[7] = biological target: T6, human albumin (human, UniProt P02768 25-609); assay: phage ELISA, photograph of the plate
[8] = biological target: T5, IgG-Fc; assay: synthetic peptide; competition assay not given
[9] = biological target: T5, IgG-Fc; assay: competition ELISA against immobilized Protein A Z-domain for biotinylated IgG-Fc; IC50 extrapolated to zero IgG-Fc
Description: Competition ELISAs were performed in a manner similar to the method described in H. B. Lowman, et al., supra. […] Plates were then washed and developed as described using avidin/HRP conjugate. Inhibition curves were then computed for each concentration of biotin-IgG-Fc, and then the curve of half-maximal inhibition, “IC₅₀”, was extrapolated to zero biotin-IgG-Fc concentration in order to obtain a Kᵢ.

[10] = biological target: T4, rabbit albumin; assay: SA08b competition binding assay with a rabbit albumin coat
Description: (§1) Plates were blocked using Blocker Casein (Pierce Chemical, Rockford, Ill.) for 1 hr, at 25° C. […] The amount of HRP bound was measured using ABTS/H₂O₂ substrate and monitoring the change at 405 nm.

[11] = biological target: T1, mouse albumin; assay: SA08b binding assay: competition with biotinylated SA08b for immobilized albumin
Description: as §1

[12] = biological target: T3, rat albumin; assay: as above
Description: as §1

[13] = biological target: T4, rabbit albumin; assay: as above
Description: as §1

[14] = biological target: T3, rat albumin; assay: SA08b competition binding assay with a rat albumin coat
Description: as §1

[15] = biological target: T1, mouse albumin; assay: SA08b competition binding assay with a mouse albumin coat
Description: as §1

[16] = biological target: T6, human albumin; assay: phage ELISA
Description: Phage ELISA—Phage clones (˜10¹¹ phage) were added to plates coated with rat, rabbit or human albumin. The microtiter plate was washed with wash buffer and bound phage were detected with HRP/Anti-M13 Conjugate. The amount of HRP bound was measured using ABTS/H₂O₂ substrate and monitoring the change at 405 nm.

[17] = biological target: bovine albumin (bovine, UniProt P02769 25-607); assay: phage ELISA, photograph of the plate
[18] = biological target: T7, albumin (species not stated, D3H44 fusion assays); assay: SA08b competition binding assay (competitor: biotinylated SA08b), albumin species not given
T7 construct: also called immobilized albumin
Description: as §1

T3 sequence (P02770 25-608 limits assumed): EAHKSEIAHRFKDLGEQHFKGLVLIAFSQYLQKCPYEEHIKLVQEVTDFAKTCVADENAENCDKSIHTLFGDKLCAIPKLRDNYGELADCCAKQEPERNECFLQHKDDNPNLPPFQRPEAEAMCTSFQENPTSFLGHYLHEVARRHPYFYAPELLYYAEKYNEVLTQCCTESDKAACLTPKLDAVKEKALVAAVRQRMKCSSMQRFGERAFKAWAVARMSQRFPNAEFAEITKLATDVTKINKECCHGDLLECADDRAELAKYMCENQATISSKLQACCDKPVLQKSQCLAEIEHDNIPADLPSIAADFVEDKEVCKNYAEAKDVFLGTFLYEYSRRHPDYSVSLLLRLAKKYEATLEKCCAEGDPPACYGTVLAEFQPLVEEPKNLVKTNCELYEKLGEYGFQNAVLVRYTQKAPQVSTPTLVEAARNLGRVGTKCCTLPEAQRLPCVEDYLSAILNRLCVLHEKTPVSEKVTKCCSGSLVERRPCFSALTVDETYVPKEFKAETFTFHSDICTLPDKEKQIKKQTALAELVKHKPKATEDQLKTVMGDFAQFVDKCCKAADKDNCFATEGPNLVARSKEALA
rhesus albumin, sequence (Q28522 17-600 limits assumed): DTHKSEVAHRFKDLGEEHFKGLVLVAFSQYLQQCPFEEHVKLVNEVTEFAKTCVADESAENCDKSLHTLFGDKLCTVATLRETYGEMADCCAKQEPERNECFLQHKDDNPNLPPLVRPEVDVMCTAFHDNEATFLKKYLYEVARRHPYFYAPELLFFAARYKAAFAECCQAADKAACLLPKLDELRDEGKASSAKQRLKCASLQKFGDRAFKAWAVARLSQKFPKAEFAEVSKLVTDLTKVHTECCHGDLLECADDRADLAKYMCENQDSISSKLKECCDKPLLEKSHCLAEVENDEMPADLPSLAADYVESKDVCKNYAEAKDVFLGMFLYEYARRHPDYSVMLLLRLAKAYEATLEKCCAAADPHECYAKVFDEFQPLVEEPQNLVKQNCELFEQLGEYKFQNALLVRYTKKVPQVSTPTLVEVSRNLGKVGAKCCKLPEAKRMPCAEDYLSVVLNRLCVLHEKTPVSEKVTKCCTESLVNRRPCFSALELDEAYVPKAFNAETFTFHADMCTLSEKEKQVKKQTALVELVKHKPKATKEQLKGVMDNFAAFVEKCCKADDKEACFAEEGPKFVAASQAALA
T1 sequence (P07724 25-608 limits assumed): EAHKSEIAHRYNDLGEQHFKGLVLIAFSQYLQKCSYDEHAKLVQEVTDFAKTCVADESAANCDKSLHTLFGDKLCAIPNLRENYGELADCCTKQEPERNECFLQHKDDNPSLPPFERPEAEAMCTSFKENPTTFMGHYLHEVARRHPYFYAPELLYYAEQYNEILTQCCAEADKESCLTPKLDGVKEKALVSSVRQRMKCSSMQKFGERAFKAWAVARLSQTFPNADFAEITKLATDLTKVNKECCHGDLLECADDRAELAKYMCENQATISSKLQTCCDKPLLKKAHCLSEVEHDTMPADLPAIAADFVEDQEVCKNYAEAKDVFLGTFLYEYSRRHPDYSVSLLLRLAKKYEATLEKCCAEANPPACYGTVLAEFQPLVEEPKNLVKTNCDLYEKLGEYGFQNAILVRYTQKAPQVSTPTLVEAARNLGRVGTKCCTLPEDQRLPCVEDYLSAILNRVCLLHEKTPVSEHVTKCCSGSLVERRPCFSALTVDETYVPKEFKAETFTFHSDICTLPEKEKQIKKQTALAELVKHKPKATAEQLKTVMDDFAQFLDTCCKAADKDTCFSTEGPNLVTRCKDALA
T4 sequence (P49065 25-608 limits assumed): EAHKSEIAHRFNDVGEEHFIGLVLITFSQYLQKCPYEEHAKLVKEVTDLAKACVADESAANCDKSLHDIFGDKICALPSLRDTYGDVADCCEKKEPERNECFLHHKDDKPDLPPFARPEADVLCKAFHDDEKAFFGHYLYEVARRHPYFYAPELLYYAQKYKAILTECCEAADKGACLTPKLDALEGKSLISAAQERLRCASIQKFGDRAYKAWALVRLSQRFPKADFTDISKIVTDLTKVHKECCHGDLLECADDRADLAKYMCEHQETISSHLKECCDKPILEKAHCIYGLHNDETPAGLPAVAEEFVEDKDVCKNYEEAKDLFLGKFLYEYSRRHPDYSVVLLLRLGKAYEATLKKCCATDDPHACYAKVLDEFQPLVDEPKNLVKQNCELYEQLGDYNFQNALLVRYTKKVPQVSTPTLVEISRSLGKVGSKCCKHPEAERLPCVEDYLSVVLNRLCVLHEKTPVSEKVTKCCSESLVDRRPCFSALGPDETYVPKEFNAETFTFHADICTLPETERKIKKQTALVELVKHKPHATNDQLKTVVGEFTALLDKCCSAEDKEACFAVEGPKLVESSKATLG
bovine albumin, sequence (P02769 25-607 limits assumed): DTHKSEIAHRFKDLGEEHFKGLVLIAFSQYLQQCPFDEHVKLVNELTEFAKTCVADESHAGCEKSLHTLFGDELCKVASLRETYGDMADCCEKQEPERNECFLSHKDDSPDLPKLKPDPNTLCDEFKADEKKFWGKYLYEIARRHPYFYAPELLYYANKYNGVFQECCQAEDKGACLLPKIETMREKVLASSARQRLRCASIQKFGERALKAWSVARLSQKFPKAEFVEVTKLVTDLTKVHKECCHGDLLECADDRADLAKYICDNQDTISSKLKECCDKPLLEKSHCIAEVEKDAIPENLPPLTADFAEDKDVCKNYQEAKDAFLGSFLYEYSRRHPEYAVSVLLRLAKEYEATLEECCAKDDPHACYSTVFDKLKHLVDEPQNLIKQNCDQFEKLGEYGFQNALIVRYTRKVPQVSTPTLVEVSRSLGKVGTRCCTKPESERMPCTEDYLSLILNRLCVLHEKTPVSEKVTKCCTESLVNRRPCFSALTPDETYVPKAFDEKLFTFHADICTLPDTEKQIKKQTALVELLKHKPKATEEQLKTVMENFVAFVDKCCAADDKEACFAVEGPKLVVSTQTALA
T7 sequence (P49065 25-608): as the sequence (P49065 25-608 limits assumed) above

EVRSFCTDWPAHYSCTSLQG (phage clone, Library HA) [HA-H74]
binding result [1]: no binding | binding result [2]: no binding | binding result [3]: no binding | binding result [4]: no binding

H-DLADCSWHMGELVWCSRVEG-NH2 (disulfide 5-15 (inferred), Synthetic peptide) [peptide DLADCSWHMGELVWCSRVEG]
Kd [5]: 50 nM

MELWCDSTLMAYDLCGDFNM (phage clone, Library BA) [BA-B39]
binding result [1]: no binding | binding result [6]: no binding | binding result [2]: no binding | binding result [3]: no binding | binding result [7]: no binding

H-WEADCAWHLGELVWCTPMEF-NH2 (disulfide 5-15 (inferred), Synthetic peptide) [peptide WEADCAWHLGELVWCTPMEF]
IC50 [8]: 30 nM

B1: Fc-II peptide KEASCSYWLGELVWCVAGVE (peptide)
peptide: H-KEASCSYWLGELVWCVAGVE-NH2
modifications: disulfide 5-15 (inferred)
notes: Synthetic peptide; disulfide-constrained library origin
Ki [9]: 5000 nM

B2: SA06 (peptide)
peptide: QRLMEDICLPRWGCLWEDDF-{code n}
modifications: disulfide 8-14 (inferred); not fully specified; reading uncertain
notes: synthesized peptide; also called Peptide SA06
IC50 [10]: 174 nM | IC50 [11]: 8 nM | IC50 [12]: 68 nM | IC50 [13]: 128 nM | IC50 [14]: 61 nM | IC50 [15]: 8 nM

GENWCDWVLLAYDLCGEDNT (phage clone, Library BA) [BA-B37]
binding result [1]: no binding | binding result [6]: no binding | binding result [2]: no binding | binding result [3]: no binding | binding result [7]: no binding

GEDWCDSTLLAFDLCGEGAR (phage clone, Library BA) [BA-B44]
binding result [16]: no binding | binding result [1]: no binding | binding result [6]: no binding | binding result [2]: no binding | binding result [3]: no binding | binding result [17]: no binding

B3: Fc-I peptide ETQRCTWHMGELVWCEREHN (peptide)
peptide: H-ETQRCTWHMGELVWCEREHN-NH2
modifications: disulfide 5-15 (inferred)
notes: as for B1
Ki [9]: 5000 nM

B4: SA08 (peptide)
peptide: Ac-QGLIGDICLPRWGCLWGDSVK-{code n}
modifications: disulfide 8-14 (inferred); reading uncertain; also: printed as Gln-Gly-Leu-Ile-Gly-Asp-Ile-Cys-Leu-Pro-Arg-Trp-Gly-Cys-Leu-Trp-Gly-Asp-Ser-Val-Lys
notes: synthesized peptide; not biotinylated form of SA08b; also called SA08 peptide
IC50 (read off the curve) [18]: ~10 nM | IC50 [11]: 10 nM | IC50 [12]: 68 nM | IC50 [13]: 63 nM
